Biological target: S蛋白, SARS-CoV-2原型毒株 (SARS-CoV-2 (prototype), UniProt P0DTC2 14-1273)
Experiment: cell-based or functional assay

B1: CoV56单抗 (antibody, V domains shown)
VH: EVQLVESGGGVVQPGGSLRLSCAVSGFTFDDYAMHWVRQAPGKGLDWVSLISGDGSYTYYADSVKGRFTISRDSSKNSLYLQMNSLRTEDTALYYCAKAQTPTLWWLQDAFDIWGQGTMVTVSS
VL: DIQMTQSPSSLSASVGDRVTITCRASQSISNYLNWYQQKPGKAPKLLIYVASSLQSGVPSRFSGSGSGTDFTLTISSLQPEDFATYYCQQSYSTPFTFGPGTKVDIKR
B1 was tested, and the “假病毒中和效果 IC50” value was 8.38 µg/mL.

B2: L4.65单抗 (antibody, V domains shown)
VH: QITLKESGPTLVKPTQTLTLTCTFSGFSLSTSGVGVAWIRQPPGKALEWLALIYWDNDKRSSPSLNNRLTITKDTSKNQVVLTMTNMDPEDTATYYCAHFFSHYDSSNYYYGSWFDPWGQGTLVTVSS
VL: EIVLTQSPGTLSLSPGERATLSCRASQSFDSRYLGWYQQKSGQAPRLLIYGASSRATGIPDRFSGSGSGTDFTLTISRLEPEDFAVYYCQQFGDSPFTFGQGTKLEIKR
With B2 the “假病毒中和效果 IC50” value was 0.000709 µg/mL.

— patent CN117603358A (INST MICROBIOLOGY CAS; 3SBIO GROUP; SHANXI ADVANCED …, dated 2024)
